Experiment in all cases: EMSA
Background: Mobility shift assays separate free from complexed probe on a gel.

The target in series [1] is rGST hnRNPA2B1 (UniProt P22626 1-353).
Series [2] deals with rGST APE1 WT (human, UniProt P27695 1-318).
Series [3] deals with rGST APE1 NdeltaN33 (APE1NΔ33) (human, UniProt P27695 34-318, del1-33).

Data on 3 molecules can be found in article doi:10.1101/2024.02.02.578563.

Chain of rGST APE1 WT (P27695 whole entry): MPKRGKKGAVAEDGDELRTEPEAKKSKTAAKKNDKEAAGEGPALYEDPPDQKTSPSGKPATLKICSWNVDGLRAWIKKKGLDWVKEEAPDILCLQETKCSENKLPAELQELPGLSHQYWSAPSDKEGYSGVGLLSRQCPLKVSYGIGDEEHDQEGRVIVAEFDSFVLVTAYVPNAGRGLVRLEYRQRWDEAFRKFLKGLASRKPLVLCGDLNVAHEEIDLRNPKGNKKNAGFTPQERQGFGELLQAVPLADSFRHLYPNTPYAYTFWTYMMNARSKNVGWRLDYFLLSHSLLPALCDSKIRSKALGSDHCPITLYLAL
Chain of rGST hnRNPA2B1 (P22626 whole entry): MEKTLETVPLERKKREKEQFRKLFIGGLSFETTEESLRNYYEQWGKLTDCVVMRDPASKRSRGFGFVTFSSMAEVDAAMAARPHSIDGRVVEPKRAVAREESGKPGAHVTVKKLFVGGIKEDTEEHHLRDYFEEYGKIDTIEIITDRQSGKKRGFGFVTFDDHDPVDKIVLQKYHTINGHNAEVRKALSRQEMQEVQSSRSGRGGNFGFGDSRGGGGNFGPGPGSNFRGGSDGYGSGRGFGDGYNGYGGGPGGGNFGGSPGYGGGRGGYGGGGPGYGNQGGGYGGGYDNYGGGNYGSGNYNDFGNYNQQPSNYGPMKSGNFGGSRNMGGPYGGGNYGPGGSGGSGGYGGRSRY
Chain of rGST APE1 NdeltaN33 (APE1NΔ33) (P27695 34-318, stated change not applied): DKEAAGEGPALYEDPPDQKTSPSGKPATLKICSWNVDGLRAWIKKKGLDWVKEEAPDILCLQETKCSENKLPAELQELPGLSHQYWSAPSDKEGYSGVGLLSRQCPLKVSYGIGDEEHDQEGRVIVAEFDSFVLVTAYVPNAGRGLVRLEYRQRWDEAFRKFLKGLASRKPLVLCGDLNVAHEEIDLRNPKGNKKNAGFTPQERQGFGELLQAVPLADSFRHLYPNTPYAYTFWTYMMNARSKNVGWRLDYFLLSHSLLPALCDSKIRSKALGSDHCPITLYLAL

Consider GGGGAGGUUAGGGAGGAGGGGGGUAGGCGCC (ssRNA) [EXO-miR], for which the binding result in series [1] and in series [2] was “binds” in each case.
As to GUGUGUACGGAUUGUAGAA (ssRNA) [scrEXO-miR-1246], the binding result in series [2] is “no binding”.
AAUGGAUUUUUGGAGCAGG (ssRNA) [hsa-miR-1246]: the binding result in series [1] is given as “binds”; in series [3], “no binding”; in series [2], “binds”.
